From publication PMC3505484

Molecular target: IL-1 receptor on human melanoma A375.S2 cells (human (endogenous in A375.S2)) (UniProt P14778)
UniProt P14778, sequence (P14778 18-569): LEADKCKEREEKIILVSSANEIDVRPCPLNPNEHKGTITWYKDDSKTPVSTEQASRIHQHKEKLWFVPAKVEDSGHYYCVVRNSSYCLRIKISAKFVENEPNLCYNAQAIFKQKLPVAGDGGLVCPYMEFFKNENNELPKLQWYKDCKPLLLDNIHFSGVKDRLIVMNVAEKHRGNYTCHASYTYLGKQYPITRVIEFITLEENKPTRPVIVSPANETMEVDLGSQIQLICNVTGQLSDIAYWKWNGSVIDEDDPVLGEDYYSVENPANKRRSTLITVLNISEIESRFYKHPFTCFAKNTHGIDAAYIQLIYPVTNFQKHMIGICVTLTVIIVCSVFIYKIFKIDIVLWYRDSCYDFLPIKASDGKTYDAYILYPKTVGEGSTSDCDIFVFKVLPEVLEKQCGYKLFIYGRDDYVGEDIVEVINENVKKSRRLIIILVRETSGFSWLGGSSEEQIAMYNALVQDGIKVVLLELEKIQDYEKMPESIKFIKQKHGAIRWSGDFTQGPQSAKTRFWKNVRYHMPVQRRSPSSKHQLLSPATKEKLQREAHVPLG

Substance: IL-1ra-HSA fusion protein (human serum albumin fused to the carboxyl terminal of human IL-1ra) (from UniProt P02768 25-609)
- input giving the 50% level of inhibition of the cytolytic activity of 1 ng/ml (0.06 nM) IL-1β to A375.S2 cells (MTT, 72 h); the pair blocked is IL-1β and the IL-1 receptor: 2 nM
- input giving the 100% level of inhibition of the cytolytic activity of 1 ng/ml (0.06 nM) IL-1β to A375.S2 cells (MTT, 72 h); the pair blocked is IL-1β and the IL-1 receptor: 32 nM
